Experimental findings from IntAct's records for PubMed 31515488 are described below.

The labels stand for the following.
B1: Protein SPMIP9 (Homo sapiens), Q96LM6 (parent)
chain: MAGVKYPGQDPVDLDIYQSSHMVDYQPYRKHKYSRVTPQEQAKLDAQLRDKEFYRPIPNPNPKLTDGYPAFKRPHMTAKDLGLPGFFPSQEHEATREDERKFTSTCHFTYPASHDLHLAQGDPNQVLQSADFPCLVDPKHQPAAEMAKGYLLLPGCPCLHCHIVKVPILNRWGPLMPFYQ
partner: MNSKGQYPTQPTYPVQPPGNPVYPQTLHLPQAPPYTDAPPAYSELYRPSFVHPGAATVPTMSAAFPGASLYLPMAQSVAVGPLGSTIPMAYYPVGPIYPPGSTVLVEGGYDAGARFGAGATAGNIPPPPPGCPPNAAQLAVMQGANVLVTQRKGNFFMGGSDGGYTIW
B2: Fructose-1,6-bisphosphatase 1 (Homo sapiens), P09467 (parent)
chain: MADQAPFDTDVNTLTRFVMEEGRKARGTGELTQLLNSLCTAVKAISSAVRKAGIAHLYGIAGSTNVTGDQVKKLDVLSNDLVMNMLKSSFATCVLVSEEDKHAIIVEPEKRGKYVVCFDPLDGSSNIDCLVSVGTIFGIYRKKSTDEPSEKDALQPGRNLVAAGYALYGSATMLVLAMDCGVNCFMLDPAIGEFILVDKDVKIKKKGKIYSLNEGYARDFDPAVTEYIQRKKFPPDNSAPYGARYVGSMVADVHRTLVYGGIFLYPANKKSPNGKLRLLYECNPMAYVMEKAGGMATTGKEAVLDVIPTDIHQRAPVILGSPDDVLEFLKVYEKHSAQ
B3: Zinc finger protein 511 (Homo sapiens), Q8NB15 (parent)
chain: MQLPPALCARLAAGPGAAEPLPVERDPAAGAAPFRFVARPVRFPREHQFFEDGDVQRHLYLQDVIMQVADVPEKPRVPAFACQVAGCCQVFDALDDYEHHYHTLHGNVCSFCKRAFPSGHLLDAHILEWHDSLFQILSERQDMYQCLVEGCTEKFKTSRDRKDHMVRMHLYPADFRFDKPKKSRSPASAEAPGDSGERSEGEAMEICSEPVAASPAPAGERRIYRHRIPSTICFGQGAARGFKSNKKKTKQC
partner: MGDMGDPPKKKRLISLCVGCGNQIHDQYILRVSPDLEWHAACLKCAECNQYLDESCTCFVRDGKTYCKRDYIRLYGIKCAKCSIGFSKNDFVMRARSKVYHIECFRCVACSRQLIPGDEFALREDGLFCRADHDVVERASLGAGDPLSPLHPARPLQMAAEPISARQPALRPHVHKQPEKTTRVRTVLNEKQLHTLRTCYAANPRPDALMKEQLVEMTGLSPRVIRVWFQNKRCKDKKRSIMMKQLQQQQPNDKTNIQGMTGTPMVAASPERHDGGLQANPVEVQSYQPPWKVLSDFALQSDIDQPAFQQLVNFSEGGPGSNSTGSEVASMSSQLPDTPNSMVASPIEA
B4: Spermatogenesis-associated protein 2 (Homo sapiens), Q9UM82 (parent)
chain: MGKPSSMDTKFKDDLFRKYVQFHESKVDTTTSRQRPGSDECLRVAASTLLSLHKVDPFYRFRLIQFYEVVESSLRSLSSSSLRALHGAFSMLETVGINLFLYPWKKEFRSIKTYTGPFVYYVKSTLLEEDIRAILSCMGYTPELGTAYKLRELVETLQVKMVSFELFLAKVECEQMLEIHSQVKDKGYSELDIVSERKSSAEDVRGCSDALRRRAEGREHLTASMSRVALQKSASERAAKDYYKPRVTKPSRSVDAYDSYWESRKPPLKASLSLRKEPVATDVGDDLKDEIIRPSPSLLTMASSPHGSPDVLPPASPSNGPALLRGTYFSTQDDVDLYTDSEPRATYRRQDALRPDVWLLRNDAHSLYHKRSPPAKESALSKCQSCGLSCSSSLCQRCDSLLTCPPASKPSAFPSKASTHDSLAHGASLREKYPGQTQGLDRLPHLHSKSKPSTTPTSRCGFCNRPGATNTCTQCSKVSCDACLSAYHYDPCYKKSELHKFMPNNQLNYKSTQLSHLVYR
B5: Fibronectin type III and SPRY domain-containing protein 2 (Homo sapiens), A1L4K1 (parent)
chain: MEEESGEELGLDRSTPKDFHFYHMDLYDSEDRLHLFPEENTRMRKVVQAEMANESRGAGDGKAQRDLQEEVDELVHLYGLEDDHELGDEFVDENIPRTGVSEYPPYMMKRRDPAREQRDWRLSGEAAEAEDLGFGGWGSAGQCQDLREAYRYTHGRASEEYECYVIPEEEDEEEAADVFCVTCKTPIRAFQKVFDEHKEHEVIPLNEALESAKDEIHKNMYKLEKQIIEMENFANHLEEVFITVEENFGKQEQNFESHYNEILETLAQKYEEKIQALGEKKKEKLEALYGQLVSCGENLDTCKELMETIEEMCHEEKVDFIKDAVAMADRLGKFLKTKTDVEISAQPEFEDQTLDFSDVEQLMGSINTIPAPSAPVINPQVPNSATGSSVRVCWSLYSDDTVESYQLSYRPVQDSSPGTDQAEFTVTVKETYCSVTNLVPNTQYEFWVTAHNRAGPSPSSERAVYMTAPSPPIIKTKEIRSCEEAVLICWESGNLNPVDSYTVELTQAESPEASGVTESVVGIPTCESVVQLQPGRSYIIYVRALNMGGPSVRSEPATVHTIGSYFRLNKDTCHPWLTISEDGLTAVRSERRTPARELSPSDTHFTRCVAVMGNLIPVRGHHYWEVEVDEHLDYRVGVAFADVRKQEDLGANCLSWCMRHTFASSRHKYEFLHNRTTPDIRITVPPKKIGILLDYEHSKLSFFNVDLSQHLYTFSCQLHEFVHPCFSLEKPGCLKVHNGISMPKHVTFY
partner: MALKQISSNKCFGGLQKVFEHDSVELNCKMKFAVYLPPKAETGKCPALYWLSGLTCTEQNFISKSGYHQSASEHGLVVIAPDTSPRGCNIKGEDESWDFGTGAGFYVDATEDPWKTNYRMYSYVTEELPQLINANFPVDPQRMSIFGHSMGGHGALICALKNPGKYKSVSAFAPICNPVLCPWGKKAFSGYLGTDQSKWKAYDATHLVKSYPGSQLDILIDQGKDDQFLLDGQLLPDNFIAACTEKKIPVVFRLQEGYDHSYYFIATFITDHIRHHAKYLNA
B6: Myotubularin-related protein 9 (Homo sapiens), Q96QG7 (parent)
chain: MEFAELIKTPRVDNVVLHRPFYPAVEGTLCLTGHHLILSSRQDNTEELWLLHSNIDAIDKRFVGSLGTIIIKCKDFRIIQLDIPGMEECLNIASSIEALSTLDSITLMYPFFYRPMFEVIEDGWHSFLPEQEFELYSSATSEWRLSYVNKEFAVCPSYPPIVTVPKSIDDEALRKVATFRHGGRFPVLSYYHKKNGMVIMRSGQPLTGTNGRRCKEDEKLINATLRAGKRGYIIDTRSLNVAQQTRAKGGGFEQEAHYPQWRRIHKSIERYHILQESLIKLVEACNDQTHNMDRWLSKLEASNWLTHIKEILTTACLAAQCIDREGASILIHGTEGTDSTLQVTSLAQIILEPRSRTIRGFEALIEREWLQAGHPFQQRCAQSAYCNTKQKWEAPVFLLFLDCVWQILRQFPCSFEFNENFLIMLFEHAYASQFGTFLGNNESERCKLKLQQKTMSLWSWVNQPSELSKFTNPLFEANNLVIWPSVAPQSLPLWEGIFLRWNRSSKYLDEAYEEMVNIIEYNKELQAKVNILRRQLAELETEDGMQESP
partner: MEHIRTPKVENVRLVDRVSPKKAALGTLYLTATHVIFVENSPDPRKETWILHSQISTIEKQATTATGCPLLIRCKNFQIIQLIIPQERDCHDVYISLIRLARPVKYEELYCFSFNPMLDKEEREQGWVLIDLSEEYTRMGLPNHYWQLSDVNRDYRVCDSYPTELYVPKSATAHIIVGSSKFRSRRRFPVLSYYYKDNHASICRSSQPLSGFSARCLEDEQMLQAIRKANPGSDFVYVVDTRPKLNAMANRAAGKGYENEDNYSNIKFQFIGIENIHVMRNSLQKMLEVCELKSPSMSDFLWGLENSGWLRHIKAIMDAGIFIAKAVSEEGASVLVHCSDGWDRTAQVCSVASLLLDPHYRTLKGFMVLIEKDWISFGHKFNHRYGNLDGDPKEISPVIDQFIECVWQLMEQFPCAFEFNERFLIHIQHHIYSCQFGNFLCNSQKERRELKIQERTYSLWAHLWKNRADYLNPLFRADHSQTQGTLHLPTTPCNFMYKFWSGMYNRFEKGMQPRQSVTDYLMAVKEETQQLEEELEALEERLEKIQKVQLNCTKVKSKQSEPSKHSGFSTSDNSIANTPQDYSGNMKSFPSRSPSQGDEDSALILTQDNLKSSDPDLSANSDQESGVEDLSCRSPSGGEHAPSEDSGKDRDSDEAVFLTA
B7: Coiled-coil domain-containing protein 185 (Homo sapiens), Q8N715 (parent)
chain: MAGFSHFSQPPYRDLWEPPRPGGERESTQRLGGQRSGADSTACSRAGTPGAESEAGACWLHPHCSFTPRPRRRGCSDSLRGSRSLSDVARRPLERSRKHRPRSRRLEDAWGETGTKPRPAWQPQTQLPPQRPQPCPHYPLAQGDSPPPCPGGAGTPLSGTFRVEKAQGGDQWAVPLGRHLGRWSPSSVPSERSSVPSQKFKRHSACVCAQKRDSSDQVESLASRDSQPLASSKEMRSPHTQVLKSKLEEVVVSSQDQQIVALVLTRLKKAQRIRELQQQAAKAWEELKRSDQKVQMTLERERRLLLRQSQEQWQEKEQRKTLQSPEQRGLRRDSQRKNVPPGESRWKEQPEDQESPRQEKLEKARAQAEHRKQCQVRRLREQEKMLRNLREQHSLQLQRRLVEACRKRHLHAVEGQKKVQDTNLSSLINYQARKVLMDCQAKAEELLRQLSLEQSFQRSQEIHQGLRKERQRELREKAQKEEEQLQQARWRAGESEEQRKMRKRILVELADEKIRQARSHVHKTTRDKVQHLRELNHLREKNHHILKLKAEKEEKCHIEGIKEAIKKKEQRVQHISQGKDPNFQEFQKLPQASRREERAPPNSSLDQMVLEAQLRACQQNRGY
partner: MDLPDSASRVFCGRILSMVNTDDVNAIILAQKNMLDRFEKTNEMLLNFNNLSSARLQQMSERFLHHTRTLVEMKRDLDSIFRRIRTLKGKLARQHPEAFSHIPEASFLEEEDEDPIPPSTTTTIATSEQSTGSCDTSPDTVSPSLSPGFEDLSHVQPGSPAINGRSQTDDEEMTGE

In the first assay the parent is B1. To be noted: with dazp2_human DAZAP2, Q15038.
Regarding P177S, the “effect of a mutation on the interaction” value is reported as “with no effect”.
The same measure, in the same setting: the entry for Y68H is “with no effect”.

Another assay covers variants of B2. To be noted: with fxr2_human FXR2, P51116.
As for G260R, the “effect of a mutation on the interaction” value is recorded as “disrupting interaction strength”.

The variants in another assay derive from B3. To be noted: with isl1_human ISL1, P61371.
Consider S195N, for which the “effect of a mutation on the interaction” value is “with no effect”.
On to D123N, for which the “effect of a mutation on the interaction” value is reported as “with no effect”.

Another assay covers variants of B4. The note with it: with traf2_human TRAF2, Q12933.
Chain of traf2_human TRAF2, Q12933 (Q12933 whole entry): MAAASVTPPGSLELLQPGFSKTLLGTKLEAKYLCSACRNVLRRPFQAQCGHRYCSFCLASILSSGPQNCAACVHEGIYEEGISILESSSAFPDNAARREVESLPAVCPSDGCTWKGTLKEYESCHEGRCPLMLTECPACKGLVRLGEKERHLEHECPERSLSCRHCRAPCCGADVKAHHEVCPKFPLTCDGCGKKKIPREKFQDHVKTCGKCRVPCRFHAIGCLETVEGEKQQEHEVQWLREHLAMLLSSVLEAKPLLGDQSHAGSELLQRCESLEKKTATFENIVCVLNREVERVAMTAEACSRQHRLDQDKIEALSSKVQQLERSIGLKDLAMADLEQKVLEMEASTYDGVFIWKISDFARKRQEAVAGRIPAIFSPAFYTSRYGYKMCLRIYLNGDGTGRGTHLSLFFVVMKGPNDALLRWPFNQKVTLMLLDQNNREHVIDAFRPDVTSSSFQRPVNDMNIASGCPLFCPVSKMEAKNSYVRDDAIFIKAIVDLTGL
L443F: the “effect of a mutation on the interaction” value is “disrupting interaction strength”.

Variants of B5 are the subject of another assay. To be noted: with estd_human ESD.
E720K: the “effect of a mutation on the interaction” value is given as “with no effect”.
K333T: the “effect of a mutation on the interaction” value is listed as “with no effect”.

In another assay the parent is B6. The note with it: with mtmr7_human MTMR7, Q9Y216.
With S126C, the “effect of a mutation on the interaction” value is “with no effect”.

Variants of B6 are the subject of the next assay. To be noted: with mtmr7_human MTMR7, Q9Y216. This is another data set of the same source.
As for F127I, the “effect of a mutation on the interaction” value is given as “with no effect”.

A further assay covers variants of B7. The note with it: with kxdl1_human KXD1, Q9BQD3.
Take S603G: the “effect of a mutation on the interaction” value is on record as “with no effect”.
